Starred links: 1 amine or outer side, 2 acyl side, 3 side chain; linkers in the order of their positions; H or OH if unused. Positions of bridges follow the written chain, without caps; N, C: chain ends. Non-standard residues stand in square brackets, D forms with d. Groups on a side chain read outwards from the residue. Primed or numbered codes have the meaning given here. *: point of attachment. PEG4′ = bifunctional PEG linker with 4 polyethylene glycol units; PEG12 = NCCOCCOCCOCCOCCOCCOCCOCCOCCOCCOCCOCCOCCC(=O)O; Docosanoyl = CCCCCCCCCCCCCCCCCCCCCC(=O)*; Dip = N[C@H](C(=O)O)C(c1ccccc1)c1ccccc1; γGlu = O=C(O)[C@H](CCC(=O)[*:2])N[*:1]; Palmitoyl = CCCCCCCCCCCCCCCC(=O)*; Pen = CC(C)(S)[C@H](N)C(=O)O; Isovaleryl = CC(C)CC(=O)*; PEG2′ = not defined here; PEG8′ = not defined here; Npc = nipecotic acid; Ahx = NCCCCCC(=O)O
T1: human ferroportin (SLC40A1) fused with GFP, stably expressed in HEK293 cells (human, UniProt Q9NP59 1-571)
T1 sequence (looked up): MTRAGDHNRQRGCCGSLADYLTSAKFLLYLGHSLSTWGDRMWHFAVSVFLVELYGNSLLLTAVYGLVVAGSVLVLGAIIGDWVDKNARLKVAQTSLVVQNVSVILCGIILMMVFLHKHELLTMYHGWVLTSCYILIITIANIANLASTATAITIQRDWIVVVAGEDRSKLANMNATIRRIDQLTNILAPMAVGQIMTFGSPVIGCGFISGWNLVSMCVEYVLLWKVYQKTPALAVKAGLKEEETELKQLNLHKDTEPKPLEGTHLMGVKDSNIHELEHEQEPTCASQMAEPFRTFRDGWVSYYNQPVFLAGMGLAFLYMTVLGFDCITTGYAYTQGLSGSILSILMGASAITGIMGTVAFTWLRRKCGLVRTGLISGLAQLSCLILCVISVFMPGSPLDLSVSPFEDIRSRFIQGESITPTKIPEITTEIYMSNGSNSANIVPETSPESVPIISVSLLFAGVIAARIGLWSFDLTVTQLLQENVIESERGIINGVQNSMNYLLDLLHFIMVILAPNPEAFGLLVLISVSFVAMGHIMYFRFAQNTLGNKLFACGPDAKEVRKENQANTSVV

B1: Compd ID 105 (peptide)
peptide: DTHXPCIKXKKC
modifications: Isovaleric acid-D-T-H-[Dpa]-P-C-I-[(D)Lys]-[b-homoPhe]-Lys[PEG11-Palm]-[(D)Lys]-[Cys]-NH2
B2: Compd ID 101 (peptide)
peptide: DTHFPCIKXKKC
modifications: Isovaleric acid-DTHFPCI-[(D)Lys]-[b-homoPhe]-Lys[PEG11-Palm]-K-[Cys]-NH2
B3: Compd ID 100 (peptide)
peptide: DTHFPCIKXKKC
modifications: Isovaleric acid-DTHFPCI-[(D)Lys]-[Dpa]-Lys[PEG11-Palm]-K-[Cys]-NH2
B4: Compd ID 92 (peptide)
peptide: Isovaleryl-DTHFPCI[dK]FK([PEG4′-Ahx-Palmitoyl])KC-NH2
modifications: disulfide 6-12 (inferred)
B5: Compd ID 96 (peptide)
peptide: Isovaleryl-DTHFPCI[dK]FK(Docosanoyl)KC-NH2
modifications: disulfide 6-12 (inferred)
B6: Compd ID 104 (peptide)
peptide: DTHXPCIKFKKC
modifications: Isovaleric acid-D-T-H-[Dpa]-P-C-I-[(D)Lys]-F-Lys[PEG11-Palm]-K-[Cys]-NH2
B7: Compd ID 106 (peptide)
peptide: Isovaleryl-DTHFPCIFK([PEG12-Palmitoyl])KC-NH2
modifications: disulfide 6-11 (inferred)
B8: Compd ID 98 (peptide)
peptide: Isovaleryl-DTHFPCI[dK]FK([PEG12-Palmitoyl])K[Pen]-NH2
modifications: disulfide 6-12 (inferred)
B9: Compd ID 6 (peptide)
peptide: DTHFPCIKFKPRC
modifications: Isovaleric acid-DTHFPCIKF-Lys[PEG11-Palm]-PRC-NH2
B10: Compd ID 99 (peptide)
peptide: DTHFPCIKFKXC
modifications: Isovaleric acid-DTHFPCI-[(D)Lys]-F-Lys[PEG11-Palm]-Dap-[Cys]-NH2
B11: Compd ID 109 (peptide)
peptide: Isovaleryl-DTH[Dip][Npc]CI[dK]FK([PEG12-Palmitoyl])KC-NH2
modifications: disulfide 6-12 (inferred)
B12: Compd ID 94 (peptide)
peptide: Isovaleryl-DTHFPCI[dK]FK([PEG4′-γGlu-Palmitoyl])KC-NH2
modifications: disulfide 6-12 (inferred)
B13: Compd ID 97 (peptide)
peptide: Isovaleryl-DTHFPCI[dK]FK([PEG12-Palmitoyl])K[dC]-NH2
modifications: disulfide 6-12 (inferred)
B14: Compd ID 7 (peptide)
peptide: DTHFPCIKFKPC
modifications: Isovaleric acid-DTHFPCIKF-Lys[PEG11-Palm]-PC-NH2
B15: Compd ID 91 (peptide)
peptide: Isovaleryl-DTHFPCI[dK]FK([PEG4′-Palmitoyl])KC-NH2
modifications: disulfide 6-12 (inferred)
B16: Compd ID 95 (peptide)
peptide: Isovaleryl-DTHFPCI[dK]FK([PEG8′-Palmitoyl])KC-NH2
modifications: disulfide 6-12 (inferred)
B17: Compd ID 90 (peptide)
peptide: Isovaleryl-DTHFPCI[dK]FK([PEG2′-PEG2′-Ahx-Palmitoyl])KC-NH2
modifications: disulfide 6-12 (inferred)
B18: Compd ID 103 (peptide)
peptide: DTHFPCIKXKKC
modifications: Isovaleric acid-DTHFPCI-[(D)Lys]-[bhomoPhe]-Lys[PEG11-Palm]-K-[Cys]-NH2
B19: Compd ID 102 (peptide)
peptide: DTHFPCIKXKKC
modifications: Isovaleric acid-DTHFPCI-[(D)Lys]-[Nal]-Lys[PEG11-Palm]-K-[Cys]-NH2
B20: Compd ID 93 (peptide)
peptide: Isovaleryl-DTHFPCI[dK]FK([PEG4′-PEG4′-Palmitoyl])KC-NH2
modifications: disulfide 6-12 (inferred)
B21: Compd ID 107 (peptide)
peptide: Isovaleryl-DTHFPCI[dK]F[dK]([PEG12-Palmitoyl])[dK]C-NH2
modifications: disulfide 6-12 (inferred)

What follows are binders tested against T1, human ferroportin (SLC40A1) fused with … (assay: cell-based or functional assay).
B1 was tested, and the “FPN IC50” value was 31 nM. With B2 the “FPN IC50” value was 24 nM. For B3, the “FPN IC50” value was 16 nM. In the case of B4, the “FPN IC50” value is reported as 21 nM. For B5, the “FPN IC50” value was 30 nM. In the case of B6, the “FPN IC50” value is reported as 27 nM. With B7 the “FPN IC50” value was 40 nM. For B8, the “FPN IC50” value was 40 nM. B9 was tested, and the “FPN IC50” value was 17 nM. In the case of B10, the “FPN IC50” value is reported as 21 nM. B11 was tested, and the “FPN IC50” value was 2 nM. With B12 the “FPN IC50” value was 9 nM. In the case of B13, the “FPN IC50” value is reported as 41 nM. In the case of B14, the “FPN IC50” value is reported as 10 nM. For B15, the “FPN IC50” value was 14 nM. For B16, the “FPN IC50” value was 28 nM. In the case of B17, the “FPN IC50” value is reported as 11 nM. B18 was tested, and the “FPN IC50” value was 20 nM. B19 was tested, and the “FPN IC50” value was 17 nM. With B20 the “FPN IC50” value was 18 nM. With B21 the “FPN IC50” value was 60 nM.
